According to PMC9637144:

Target: human IGF1R ectodomain (Δβ mutant) (human) (UniProt P08069)
Experiment: radioligand binding

IC50: 0.4 nM
Substance: human IGF-1 (unlabeled) (from UniProt P05019 49-118) (ligand)
